Where only a bound is given, the exact number is not on record here.

This experiment addresses T1, recombinant human IL-13Rα2Fc chimera protein (R&D) (human, UniProt Q14627 27-343, biotinylated (sulfo-NHS-biotin) in the immunofluorescence assay only).
T1 construct: Bought protein (R&D); It was used biotinylated in the IFA and unlabelled in the migration assay; also called huIL-13Rα2Fc chimeric protein; HuIL-13Rα2Fc; Fc part of the bought chimera not given
T1 sequence (looked up): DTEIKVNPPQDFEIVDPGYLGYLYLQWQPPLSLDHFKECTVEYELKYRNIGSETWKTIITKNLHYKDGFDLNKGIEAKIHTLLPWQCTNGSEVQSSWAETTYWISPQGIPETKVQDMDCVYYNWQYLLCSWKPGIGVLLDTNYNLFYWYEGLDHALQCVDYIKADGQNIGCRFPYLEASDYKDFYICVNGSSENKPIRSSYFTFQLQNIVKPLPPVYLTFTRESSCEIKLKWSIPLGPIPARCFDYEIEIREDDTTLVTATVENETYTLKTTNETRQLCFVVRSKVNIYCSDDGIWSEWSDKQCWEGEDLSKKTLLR
Put plainly: method not stated; affinity for recombinant IL-13Rα2Fc compared with the previously cloned scFv.

B1: IL-13Rα2 scFv (improved scFv-IL-13Rα2) (scFv)
scFv: QVQLVQSGAEVKKPGASVKVSCKASGYTFTSYAMHWVRQAPGQRLEWMGWINAGNGNTKYSQKFQGRVTITRDTSASTAYMELSSLRSEDTAVYYCARMNHMIPLKAWGQGTLVTVSSGGGGSGGGGSGGSALAIQMTQSPSSLSASVGDRVTITCRASQGIRNDLGWYQQKPGKAPKLLIYAASSLQSGVPSRFSGSGSGTDFTLTISSLQPEDFATYYCLQMYNYRTFGQGTKLEIKRA
notes: also called clone derived protein
Consider B1, for which the “fold higher binding affinity compared to the previously cloned scFv ECD-IL-13Rα2 (Kioi et al. 2008)” value was more than 4 fold.

(Values after patent US20240189351A1 (US Dept. of Health and Human Services, published 2024).)
